From patent US20230357364A1 (INTERNATIONAL AIDS VACCINE INITIATIVE, published 2023)

Molecular target: human insulin (human, UniProt P01308 25-54; P01308 90-110)
Assay: polyreactivity ELISA

Sequence of human insulin (P01308 25-54 limits assumed, chain 1 of 2): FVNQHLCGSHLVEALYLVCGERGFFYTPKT
Sequence of human insulin (P01308 90-110 limits assumed, chain 2 of 2): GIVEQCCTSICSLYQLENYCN

Binder	binding result
L6.P4A3.1 (antibody, V domains shown) VH: QVQLVQSGAEVKKPGSSVKVSCKASGGIFSSSAISWVRQAPGQGLEWMGGIIPILDISNYAQKFQGRVTITADKSTSTAFMELSSLRSEDTAVYYCALTNQWDLLVYWGQGTLVTVSS VL: EIVLTQSPGTLSLSPGERATLSCRASQRVSSSYLAWYQQKPGQAPRLLIYGAESRATGIPDRFSGSGSGTDFTLTISRLEPEDFAVYYCQHYGSSLWTFGQGTKLEIK	no binding
L6.P4A3.b (antibody, V domains shown) VH: QVQLVQSGAEVKKPGSSVKVSCKAPGGTFSSSAISWVRQAPGQGLEWMGGIIPILDITTYAQKFQGRVTITADKSTSTAFMELSSLRSEDTAVYYCALRNQWDLLIYWGQGTLVTVSS VL: EIVLTQSPGTLSLSPGERATLSCRASQSVSSHYLAWYQQKPGQAPRLLIYGASSRYTGIPDRFSGSGSGTDFTLTISRLEPEDFAVYYCQHYGSSHWTFGQGTKLEIK	no binding
L6.P4A3.3 (antibody, V domains shown) VH: QVQLVQSGAEVKKPGSSVKVSCKAPGGTFSSSAISWVRQAPGQGLEWMGGIIPILDITHYAQKFQGRVTITADKSTSTAFMELSSLRSEDTAVYYCALRNQWDLLVYWGQGTLVTVSS VL: EIVLTQSPGTLSLSPGERATLSCRASQDVSSSYLAWYQQKPGQAPRLLIYGAESRATGIPDRFSGSGSGTDFTLTISRLEPEDFAVYYCQHYGSSEWTFGQGTKLEIK	no binding
L6.P4A3.8 (antibody, V domains shown) VH: QVQLVQSGAEVKKPGSSVKVSCKVSGGTFSSSAISWVRQAPGQGLEWMGKIIPILDITNYAQKFQGRVTITADKSTSTAFMELSSLRSEDTAVYYCALRNQWDLLVYWGQGTLVTVSS VL: EIVLTQSPGTLSLSPGERATLSCRASQSVSSHYLAWYQQKPGQAPRLLIYGAESRATGIPDRFSGSGSGTDFTLTISRLEPEDFAVYYCQHYGSSPWTFGQGTKLEIK	no binding
L6.P4A3.5 (antibody, V domains shown) VH: QVQLVQSGAEVKKPGSSVKVSCKAVGGTFSSSAIYWVRQAPGQGLEWMGGIIPILDIANYAQKFQGRVTITADKSTSTAFMELSSLRSEDTAVYYCALRNQWDLVVYWGQGTLVTVSS VL: EIVLTQSPGTLSLSPGERATLSCHASQSVSSSYLAWYQQKPGQAPRLLIYGAESRATGIPDRFSGSGSGTDFTLTISRLEPEDFAVYYCQHYGSSTWTFGQGTKLEIK	no binding
L6.P4A3.7 (antibody, V domains shown) VH: QVQLVQSGAEVKKPGSSVKVSCKASGGIFSSSAISWVRQAPGQGLEWMGGIIPILDYTNYAQKFQGRVTITADKSTSTAFMELSSLRSEDTAVYYCALRNQWDLLVYWGQGTLVTVSS VL: EIVLTQSPGTLSLSPGERATLSCRASQEVSSSYLAWYQQKPGQAPRLLIYGAESRATGIPDRFSGSGSGTDFTLTISRLEPEDFAVYYCQHYGSSAWTFGQGTKLEIK	no binding
L6.P4A3.9 (antibody, V domains shown) VH: QVQLVQSGAEVKKPGSSVKVSCKSSGGTFSSSAYSWVRQAPGQGLEWMGTIIPILDITNYAQKFQGRVTITADKSTSTAFMELSSLRSEDTAVYYCAQRNQWDLIVYWGQGTLVTVSS VL: EIVLTQSPGTLSLSPGERATLSCRASQWVSSSYIAWYQQKPGQAPRLLIYGAESRATGIPDRFSGSGSGTDFTLTISRLEPEDFAVYYCQHYGSSSWTFGQGTKLEIK	no binding
L6.P4A3.2 (antibody, V domains shown) VH: QVQLVQSGAEVKKPGSSVKVSCKAPGGTFSSSAISWVRQAPGQGLEWMGTIIPILDITNYAQKFQGRVTITADKSTSTAFMELSSLRSEDTAVYYCAQRNQWDLLVYWGQGTLVTVSS VL: EIVLTQSPGTLSLSPGERATLSCRASQSVSASYLAWYQQKPGQAPRLLIYGAESRATGIPDRFSGSGSGTDFTLTISRLEPEDFAVYYCQHYGSSRWTFGQGTKLEIK	no binding
L6.P4A3.12 (antibody, V domains shown) VH: QVQLVQSGAEVKKPGSSVKVSCKASGGLFSSSAISWVRQAPGQGLEWMGGIIPILDITNYAQKFQGRVTITADKSTSTAFMELSSLRSEDTAVYYCALTNQWDLLVYWGQGTLVTVSS VL: not shown	no binding
